Experimental data published in the nanobody polyreactivity screen of Harvey et al. (2022).

Assay: yeast display, Sf9 membrane polyspecificity reagent, FACS + sequencing; frameworks hold sequencing errors
Procedure, shortened: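 Genes from sorted yeast were amplified by colony PCR, read by MiSeq 2 × 250 sequencing and filtered on CDR length. These cells carried a synthetic nanobody library in Saccharomyces cerevisiae BJ5465 and were sorted by FACS into low and high (top ~1%) gates on anti-HA and streptavidin fluorescence. Polyreactivity is labelled according to the gate of origin.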

Row | Sequence | polyreactivity (PSR sort gate)
1 | QVHLVESGGGLVQAGGSLRLSCAASGFTYYKYAMGWYRQAPGKEREFVDAITPSGGSTYYADSVKGRFTISRDNAKNTVYLQMNSLKPEDTAVYYCAAYYGTSRWAKMCYWGQGTQVTVSS | high polyreactivity
2 | QVHLVESGGGLVQAGGSLRLSCAASGGIFLDNAMGWYRQAPGKERELVASIRTRTYYADSVKGRFTISRDNAKNTVYLQMNSLKPEDTAVYYCAAAHRRWDGDYNYWGQGTQVTVSS | high polyreactivity
3 | QVHLVESGGGLVQAGGSLRLSCAASGGIFLENAMGWYRQAPGKERELVAAISYNGGRTYYADSVKGRFTISRDNAKNTVYLQMNSLKPEDTAVYYCNAASPYYDSWGQGTQVTVSS | high polyreactivity
4 | QVHLVESGGGLVQAGGSLRLSCAASGGTFGYYAMGWYRPAPGKERELVAAINARGDSTYYADSVKGRFTISRDNAKNTVYFLMNSLKPEDTAVYYCNTGIALFGYKYHYWGQGTQVTVSS | low polyreactivity
5 | QVHLVESGGGLVQAGGSLRLSCAASGGTFQDYTMGWYRQAPGKEREFVAAISLSGTRTYYADSVKGRFTISRDNAKNTVYFQMNSLKPEDSAVYYCSTSGPQYYSRNFDYWGQATQVTVSS | low polyreactivity
6 | QVHLVESGGGLVQAGGSLRLSCAASGGTFYYNTMGWYRQAPGKERELVAAITSGTSTNYADSVKGRFTISRDNAKNTVYLQMNSLIPEDTAGYYCAADPDADDPRRGYDYWGQGTQVTVSS | low polyreactivity
7 | QVHLVESGGGLVQAGGSLRLSCAASGGTLYANAKGWYRQAPGKERELVATITSSSGSTSYADSVKGRFSISRDNAKNTVYLQKNSLKPEDTAVYYCAKDSHAQGPYRYIHYHHTGDYWGQGTQVTVSS | low polyreactivity
8 | QVHLVESGGGLVQAGGSLRLSCAASGIIFDHYAMVWYRPAPGKERELVAAISTGGGNTYYADSLKGRFTISRDNAKNTVYLQMNSLKPEDTAVYYCNADVLWGRRWGDYYGYDYWGQGTQVTVSS | low polyreactivity
9 | QVHLVESGGGLVQAGGSLRLSCAASGIIFEYNAMGWYRQAPGKERELVAAITSTDNTNYADSVKGRFTISRDNAKKTVYLQMNILIPEDTAVYYCNTDYWLSVVYAMDYWGQGTQVTVSS | low polyreactivity
10 | QVHLVESGGGLVQAGGSLRLSCAASGIIFGRFTMGWYRQAPGKERELVAAITSSGITYYADSLKGRFTISRDNAKNTVYLQMNSLKPEDTAVSYCNADYSIPGYYWPFDYWGQGTQVTVSS | low polyreactivity
11 | QVHLVESGGGLVQAGGSLRLSCAASGIIFVLYTMGWYRQAPGKERELVATINWGGGNTYYADSLKGRFTISRDNAKNTVYLQMNSLKPEDTAVYYCAAAYTWYGYSQAYYYWGQGTQVTVSS | low polyreactivity
12 | QVHLVESGGGLVQAGGSLRLSCAASGIILYGYAMGWYRQAPGKERELVAAITKSGGSTYYADSVKGRFTISRDNAKNTVYLLMNSLKPEDTAVYYCAAKLWGIWYYGYRPDDYWGQGTQVTVSS | low polyreactivity
13 | QVHLVESGGGLVQAGGSLRLSCAASGIPLYFYAMGWYRQAPGKERELVAAISRGGRTYYADSVKGRFTISRDNAKYTVYLQMNSLKPEDTAVYYCAARYTSEYSAFDYWGQGTQVTVSS | low polyreactivity
14 | QVHLVESGGGLVQAGGSLRLSCAASGITFGYYAMGWYRQAPGKERELVAAISNSGRTYYADSVKGRFTISRDNAKNTVYLQMNSLKPEDTAVYYCADVDAYYDFYYWGQGTQVTVSS | low polyreactivity
15 | QVHLVESGGGLVQAGGSLRLSCAASGITFNSYAMGWYRQAPGKERDLDASISWIGGSTYYADSVKGRFTISRDNAKNTVYLQINSLKPDDTAVYYCAVDKGTDYYYDVDYWGQGTQVTVSS | low polyreactivity
16 | QVHLVESGGGLVQAGGSLRLSCAASGITFRFNAMGLSRQAPGKEMEFVAAITYSGDSTYYADSLKVRFTISRDNAKNSVYLHLKSVKPEDTAVYYCAAEYYAISRRIFYYWGQGTQVTVSS | low polyreactivity
17 | QVHLVESGGGLVQAGGSLRLSCAASGITFRYYAMGWYRQAPGKERELVAVISTSGGSTYYADSVKGRFTISRDNAKNTVYLQMNSLKPEDTAVYYCAVVWPYSERYYYWGQGTQVTVSS | high polyreactivity
18 | QVHLVESGGGLVQAGGSLRLSCAASGITLRVYVMGWYRQAPGKERELVAAITSRGDRTYYADSVKGRFTISRDNAKNTVYLQMNSLKPEDTAVYYCAASRWRDAGHSYDYWGQGTQVTVSS | high polyreactivity
19 | QVHLVESGGGLVQAGGSLRLSCAASGITVGSYAMGWYRQAPGKERELVAAITSGGGTNYADSVKGRFTISRDNAKNTVYLEMKSLKPEDTAVYYCAARYYYLGTRYGYWGQGTQVTVSS | low polyreactivity
20 | QVHLVESGGGLVQAGGSLRLSCAASGLIFTTNAMGWYRQAPGKERDFVAAISPSGGSTYYADSVKGRFTISRDNSKNTVYLQMNSLKPEDTAVYYCAARYSTVWHKYYYWGQGTQVTVSS | high polyreactivity
21 | QVHLVESGGGLVQAGGSLRLSCAASGLIFYRYAMGWYRQAPGKERELVATISSGGSTNYADSVKGRFTISRDNAKNTVYLQMNSLKPEDTAVYYCAASRWLYYYLFEYWGQGTQGTVSS | high polyreactivity
22 | QVHLVESGGGLVQAGGSLRLSCAASGLIIYRYAMGWYRQAPGKERELVAAITTNGARTYYADSVKGRFTISRDNAKNTVYLQMTSLIPEDTAVYYCAAYGAGKFWAEHNYWGLGTQVTVSS | high polyreactivity

Row | Sequence | polyreactivity (PSR sort gate)
23 | QVHLVESGGGLVQAGGSLRLSCAASGLTFGRNAMGWYRQAPGKERELVAVISRSGGSTYYADSVKGRFTISRDNAQNTVYLQMNSLKPEDTAVYYCAAGAYSYRKYRSYDYWGQGTQVNVSS | high polyreactivity
24 | QVHLVESGGGLVQAGGSLRLSCAASGLTFYPNAMGWYRQAPGKERELVAAITYSTGSTYADSVKGRFTITRDNAKNTVFLQMNSLKPEDSAVYDCAAYWSRVRYGMNYWGQGTQVTVSS | high polyreactivity
25 | QVHLVESGGGLVQAGGSLRLSCAASGLTFYYYVMGWYRQAPGKERELVAAISYSGGRTYYADSVKGRFTISRDNAKNTVYLQMNSLKPEDTAVYYCAAQSRYGGKFYYWGQGTQVTVSS | high polyreactivity
26 | QVHLVESGGGLVQAGGSLRLSCAASGRIFADYAMGWYRQAPWKERELVADIRQSGGRTYYADSVKGRFTISRDYAKNTVDLQMNSLKPEDTAVYYCATDYGSWGDYSGKYDYWGQGTQVTVSS | low polyreactivity
27 | QVHLVESGGGLVQAGGSLRLSCAASGRIFAGYAMGWYRQAPGKERELVATITRGGSTNYADSVKRPFTISRDNAKNTVYLQMNSLKPEDTAVYYCADVTWYEEYDSWGQGTQVTVSS | low polyreactivity
28 | QVHLVESGGGLVQAGGSLRLSCAASGRIFAWYAMGWYRQAPGKERELVAAITWGGGRTYYADSVKGRFTISRDNAKNTVYLQMNSLKPEDSAFYYCNRDFDDEMWGQGTQVTVSS | low polyreactivity
29 | QVHLVESGGGLVQAGGSLRLSCAASGRIFGDYAMGWYRQATGKERELVAAINSSGTSTNYADSVKGRFTFSRDNAKNTVYLQMNSLKPEDTAVYYCNAEGTYRPEYDSWGQGTQVTVSS | low polyreactivity
30 | QVHLVESGGGLVQAGGSLRLSCAASGRIFGPYAMGWYRQAPGKERELVASISGGGSTNYADSVKGRFTISRDNAKNTVYLQMNSLKPEDTAVYYCAADVYYQYWGWWPYDYWGQGTQVTVSS | low polyreactivity
31 | QVHLVESGGGLVQAGGSLRLSCAASGRIFHYNTMGWYRQAPGKERELVAAITSSGGSTYYADSVKGRFTISRDNAKNTVYLQMNSLKPEDTAVYYCNAVFYRYGFKVDYWGQGTQETVSS | high polyreactivity
32 | QVHLVESGGGLVQAGGSLRLSCAASGRIFIYYAMGWYRQAPGKERELVAAISWCGGRTYYADSVKGRFTISRDNAKNTVYLQMNSLKPEDTAVYYCAAGVYTGQHEYDYWGQGTQVTVSS | low polyreactivity
33 | QVHLVESGGGLVQAGGSLRLSCAASGRIFPKNGMGWYRQAPGTERDLVAAITSGTSTYYADSVKGRFTISRDNAKNTVYLQMNRLKPEDTAVYYCAARPTDGSGWPYRWTSDYWGQGTQVTVSS | low polyreactivity
34 | QVHLVESGGGLVQAGGSLRLSCAASGRIFRKYAIGWYRQAPGKERELVAAISFSGTSTYYADSVKGRFTISRDNAKNTVYLQMNSLKPEDTAVYYCAAVYRQGTGYVDYDSWGQGTQVTVSS | low polyreactivity
35 | QVHLVESGGGLVQAGGSLRLSCAASGRIFVFNAMGWYRQAPGKERELVAAINYRGGTYYADSVKGRFTISRDNAKNTVYLQMNSLKPEDTAVYYCNALRQKFQYHDNDYWGQGTQVTVSS | high polyreactivity
36 | QVHLVESGGGLVQAGGSLRLSCAASGRIFVKYAMGCYRQAPGKERELVAAIRSGGSTYYADSVKGRFTISRDNAKNTVYLQMNSLKPEDTAVYYCAADRNKHHYYTEPYDYWGQGTQVTVSS | low polyreactivity
37 | QVHLVESGGGLVQAGGSLRLSCAASGRIFVRYAMGWYRQAPGKERELVATISGGRTNYADSVKWRFTISRDNAKNSVYLQMNSLKPEDTAVYYCAVGSHSRSSNSYYYWGQGSQVTVSS | low polyreactivity
38 | QVHLVESGGGLVQAGGSLRLSCAASGRISKLYAMGWYRQAHGKERDLVAAISSGGSTYYADSVKGRFTISRDNAKNTVYLQMNSLKPEDTAVYYCAVTQVMQYGIPYSYTRDYWGQGTQVTVSS | low polyreactivity
39 | QVHLVESGGGLVQAGGSLRLSCAASGRISWGYAMGWDRQAPGKERELVAVINFNGGRTYYADSVKGRFTISRDNAKNTVYLQMNSLKPEDTAVYYCAADSGYEYDYWGQGTQVTVSS | low polyreactivity
40 | QVHLVESGGGLVQAGGSLRLSCAASGRIYPYPMGWYRQAPGKERELVAAITSRGGTTYYADSVKGRFTISRDNAKNTDYVQMNSLKPEDTAVYYCNKRPWWWGGDDYWGQGTQVTVSS | low polyreactivity
41 | QVHLVESGGGLVQAGGSLRLSCAASGRNFYTNVMGWSRQAPGKERELVAAISSGGGTTYYADSVKGRFTISRDNAKNTVYLQMNSLKPEDTAVYYCAADALSDEYDYWGQGTEVTVSS | low polyreactivity
42 | QVHLVESGGGLVQAGGSLRLSCAASGRSFRRNARGWYRQAPGKERELVATISSGGTTKYADSVKGRFTISRDNAKYTVYLQMNNLKPEDTAVYYCNADLNRRTYGPDSYYWGQGNQVTVSS | high polyreactivity
43 | QVHLVESGGGLVQAGGSLRLSCAASGRTFASNPMGWYRQAPGKERELVAAISARGGSTYYADSVKGRFTISRDNAKNTVYLQMNSLKPEDTAVYYCAAYLGYPYGRDYWGQGTQVTVSS | high polyreactivity
